{
  "source": "paper PMC9454918",
  "molecular_target": "recombinant goose FST protein (148-amino-acid peptide of goose follistatin, residues 93-240) (goose)",
  "assay": "SDS-PAGE and Western blot; purified recombinant protein on an SDS-PAGE gel stained with Coomassie blue; Western blot with an anti-His tag antibody",
  "data": [
    {"substance": "recombinant goose FST protein (148-amino-acid peptide of goose follistatin, residues 93-240) (domain or fragment)", "values": [
      {"measurement": "stoichiometry N", "result": 2}
    ]}
  ]
}
